These sequences were tested on F1*sub RNA substrate (template-directed ligation) (assay: fraction ligated after 30 min (ligated reads / total reads); higher = more ligase activity; sequences stand for … in GAGACCGCAACTGAAAAGTTGT…AGTTCTGCACGTAGAAGCAAAAGGC). Conditions: 42 °C.
Procedure: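 Chip-synthesised pool of F1* ligase ribozyme variants (all single and double substitutions, single, double and triple deletions in the catalytic core and GAA bulge, plus designed variants) was transcribed with T7 and reacted as a pool with excess substrate F1*sub for 30 min at 42 C in 50 mM EPPS pH 8.5, 25 mM MgCl2. Ligated and unligated bands were separated by PAGE, barcoded by RT and deep sequenced; fraction ligated = ligated reads / total reads per variant, relative activity = FL / FL of wild type (0.826). Sequences are the DNA template of the ribozyme.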

| Sequence | fraction ligated |
| --- | --- |
| TATCCTTGTGTAAGACATTTGGATGGGTTGA [3d1007] | 0.796 |
| TATCACTTGTGTAGACACTTTGGAGGGTTGA [3d1740] | 0.0783 |
| TATCACTTTCTAAGACACTTTGGATGGGTTG [3d1492] | 0.785 |
| TATCACTGTGTAAGCACTTTGGATGGGTTGA [3d1347] | 0.878 |
| TTCACTTGTCGTAAGCACTTTGGTGGGTTGA [3d457] | 0.0197 |
| TATCATTGTCGTAGACACTTTGGATGGGTTGA [2d115] | 0.798 |
| TATCACTTGTCGTAAGACACTTGGAGGGTTG [3d2250] | 0.00522 |
| TTCCTTGTCGTAAGACACTTTGGATGGGTTA [3d315] | 0.229 |
| ATCACTTGTCGTAAGAACTTTGGATGGGTTGA [2d15] | 0.821 |
| TATCATTTCTAAGACACTTTGGATGGGTTGA [3d1141] | 0.786 |
| ACACTTTCGTAAGACACTTTGGATGGGTTGA [3d28] | 0.0846 |
| TATCACTTGTCGTAAGACACTTTGGAGGTTA [3d2277] | 0.0104 |
| TATCACTTGTCGTAAGCACTTGATGGGTTGA [3d2129] | 0.743 |
| TAACTTGTGTAAGACACTTTGGATGGGTTGA [3d512] | 0.547 |
| TATCACTTGTCGAGACACTTTGGTGGGTTGA [3d1910] | 0.0759 |
| TATCCTTGTCGTAAGACCTTTGGTGGGTTGA [3d1085] | 0.212 |
| TATCCTGTCGTAAGACACTTTGGAGGGTTGA [3d964] | 0.0143 |
| TATCTTGTCGTAAGACACTTTGGATGGGTTA [3d756] | 0.722 |
| TATCACTTTCGTAAGACCTTGGATGGGTTGA [3d1547] | 0.766 |
| TATCATTGTCTAAGACACTTTGGAGGGTTGA [3d1197] | 0.0716 |
| TATCACTTGTCGTAAACCTTTGATGGGTTGA [3d2068] | 0.672 |

| Sequence | fraction ligated |
| --- | --- |
| TATCACGTCTAAGACACTTTGGATGGGTTGA [3d1296] | 0.772 |
| TATCACTTGTCGTAAGACACTTTGAGGTTGA [3d2264] | 0.0133 |
| ATCACTTGTCGTAAACACTTTGGATGGGTTA [3d219] | 0.54 |
| TATCACTTGTGTAAGACACTTGGATGGGTTG [3d1792] | 0.801 |
| TATCACTTGTCGTAAGACATTTGATGGGTTG [3d2219] | 0.098 |
| TATCACTTGTGTAAGACACTTGGTGGGTTGA [3d1788] | 0.0212 |
| ATCACTTGTCGTAAGACACTTTGGAGGGTTGA [2d21] | 0.189 |
| TATCACTTGCGTAAGACACTTTATGGGTTGA [3d1688] | 0.12 |
| TATCATTGTCGTAAACACTTTGGAGGGTTGA [3d1233] | 0.0387 |
| TTCACTTGTCGTAAAACTTTGGATGGGTTGA [3d442] | 0.623 |
| TATCCTTGTGTAAGACACTTTGGATGGGTTGA [2d93] | 0.792 |
| TATCATTGTCGTAAGACACTTTGGTGGGTTG [3d1285] | 0.247 |
| TATCACTTGTCGTAAGCACTTTGGATGGTTG [3d2149] | 0.17 |
| TATCCTTGTCTAAACACTTTGGATGGGTTGA [3d1017] | 0.793 |
| TTCACTTGTCGTAAGACATTTGGATGGGTTG [3d483] | 0.731 |
| TACACTTGTCTAAACACTTTGGATGGGTTGA [3d634] | 0.177 |
| TATCACTTGTCGTAAGCACTTTGGTGGGTTA [3d2143] | 0.0888 |
| TATCACTTGTCGTAGACATTTGGATGGGTTA [3d2033] | 0.799 |
| TATCACTTGGTAAGCACTTTGGATGGGTTGA [3d1588] | 0.818 |
| TTCACTTGCGAAGACACTTTGGATGGGTTGA [3d373] | 0.702 |
| TATCATTGTCGAAGACATTTGGATGGGTTGA [3d1206] | 0.794 |

| Sequence | fraction ligated |
| --- | --- |
| TATCACTTGTCGTAAGACCTTTGGATGGGTTA [2d267] | 0.788 |
| TATCACTTGTCGTAAGCACTTTGATGGGTTGA [2d248] | 0.751 |
| TATCACTTGTTAAGACACTTTGGATGGGTTG [3d1717] | 0.83 |
| TATCACTTGCGTAAGACACTTTGGATGGTTG [3d1702] | 0.208 |
| TATACTTGTCGAAGAACTTTGGATGGGTTGA [3d860] | 0.748 |
| TTCACTTGCGTAAGACACTTTGGATGGGTTG [3d386] | 0.571 |
| ATCATTGTCGTAAGAACTTTGGATGGGTTGA [3d95] | 0.802 |
| TATCACTGTCGTAAGCACTTTGGAGGGTTGA [3d1414] | 0.0753 |
| ATCCTTGTCGTAGACACTTTGGATGGGTTGA [3d73] | 0.758 |
| TATCACTTGTCGTAAGACACTTGGTGGGTTG [3d2247] | 0.0184 |
| TATCACTTGTCGAAGCCTTTGGATGGGTTGA [3d1926] | 0.757 |
| TATCACTTTCTAAGACACTTGGATGGGTTGA [3d1486] | 0.767 |
| TAACTTGTCGTAAGACACTTTGGTGGGTTGA [3d523] | 0.0256 |
| TATCACTTGTCGTACACTTTGGATGGGTTGA [3d1981] | 0.797 |
| TATACTTGTCGTAAGAATTTGGATGGGTTGA [3d903] | 0.769 |
| TATCATTGTGTAAGACACTTGGATGGGTTGA [3d1180] | 0.799 |
| TATACTTGTCGTAAGACATTTGATGGGTTGA [3d919] | 0.735 |
| TATCACTGTCGTAAGACACTTGGATGGGTTA [3d1445] | 0.775 |
| TATCACTTGTCGAGACATTTGGATGGGTTGA [3d1907] | 0.829 |
| TTCCTTGTCGAAGACACTTTGGATGGGTTGA [3d303] | 0.796 |
| TACATTGTCGTAAGACATTTGGATGGGTTGA [3d558] | 0.298 |

| Sequence | fraction ligated |
| --- | --- |
| TATCACTTTCTAAGAACTTTGGATGGGTTGA [3d1483] | 0.87 |
| TATCACTTGTCTAAACACTTTGGATGGGTTG [3d1845] | 0.792 |
| TATCACTGTCGTAAGACACTTTGGAGGGTTA [3d1458] | 0.0132 |
| TACACTGTCGTAAGACACTTTGGTGGGTTGA [3d580] | 0.151 |
| TATCCTTGTCGTAAGCACTTTGATGGGTTGA [3d1069] | 0.754 |
| TATCCTTGTCGTAGAACTTTGGATGGGTTGA [3d1045] | 0.792 |
| TATCACTGTGTAAGACATTTGGATGGGTTGA [3d1350] | 0.849 |
| TACACTTGTCGTAAGACATTTGGTGGGTTGA [3d709] | 0.0505 |
| TATACTTTCGTAAGACACTTTGGTGGGTTGA [3d807] | 0.00703 |
| TATACTTGTCGTAAGACCTTTGGATGGGTTGA [2d81] | 0.746 |
| TATCATTGCGTAAGAACTTTGGATGGGTTGA [3d1162] | 0.837 |
| TACACTTGTCTAAGAACTTTGGATGGGTTGA [3d636] | 0.116 |
| TTCACTTGTCGTAAGACACTTTGGAGGTTGA [3d501] | 0.00904 |
| ATCACTTGTCGTAAGACACTTGATGGGTTGA [3d254] | 0.164 |
| TTCACTTGCGTAAGACACTTTGATGGGTTGA [3d381] | 0.055 |
| ATCACTTGGTAAGACACTTTGGATGGGTTGA [3d140] | 0.735 |
| TATACTTGTCGTAAGACATTTGGATGGTTGA [3d922] | 0.0978 |
| TATCACTTGTCGAAGACACTTGGATGGTTGA [3d1961] | 0.106 |
| TATCACTTGTCGTAGACACTTTGATGGGTTA [3d2046] | 0.156 |
| TATCACTTGTCGTAAACACTTGGTGGGTTGA [3d2083] | 0.119 |
